Measured values taken from the DeepSol protein solubility set.

Assay: soluble on expression in E. coli; label from the status in PepcDB or PDB records

| Sequence | soluble on expression in E. coli |
| --- | --- |
| MAHHHHHHMGTLEAQTQGPGSMRLTVVGANGRMGRELITAIQRRKDVELCAVLVRKGSSFVDKDASILIGSDFLGVRITDDPESAFSNTEGILDFSQPQASVLYANYAAQKSLIHIIGTTGFSKTEEAQIADFAKYTTIVKSGNMSLGVNLLANLVKRAAKALDDDFDIEIYEMHHANKVDSPSGTALLLGQAAAEGRNIMLKNVSVNGRSGHTGKREKGTIGFACSRGGTVIGDHSITFAGENERIVLSHIAQERSIFANGALKAALWAKNHENGLYSMLDVLGLNE | soluble |
| GSHMRPQGATVSLWETVQKWREYRRQCQRSLTEDPPPATDLFCNRTFDEYACWPDGEPGSFVNVSCPWYLPWASSVPQGHVYRFCTAEGLWLQKDNSSLPWRDLSECEESKRGERSSPEEQLLFLY | soluble |
| SQIFASDGKTQLARIVPPDGNRTEVPIDKIPEVTRNAVLAAEDREFYTNSGFSFTGFGRAILGQLTGDASAGGGSTITQQYVKNMVVGNDYSYMRKAKELVYSVKMANEWSKDEVLGAYLNTIYFGRNAYGIDAAAHAYFGVPASELNVGQSAMLAATIQRPSQLDPWSNR | not soluble |
| MSEMLNHVASCRLPTEWGVFTMHGFEEANGQEHVALTVGNFSDGNPVLTRIHSECLTGDALFSRKCDCGPQLEAAMRAVQTEGRGIIVYLRQEGRGIGLINKIRAYHLQDQGMDTVEANLALGLPVDARDFRLAQSIYEYLGIRSVKLLTNNPEKIQTLKDAGINVVERIPLHVGENLENKRYLQTKADKLGHLMSE | not soluble |
| MNESRITRNNEAVYKPEELDILRLGLDTDLYPNVDWMDMLLKDGAWSNRINLNMSGGGTTARYFVSASYVKEDGMYNTDESLKDDYNTNAAYHRWNYRLNTDIDITKTTLLKVGVAGFLSKRNSPGLGDGDVWGELFGYNPIKTPVMYSNGYIPAIGSGNKTNPWVAATQTGFNENWTNNIETNISLEQNFDFITKGLKFVGRFGYDSNNQNTIRRLKWPEQWLAERARDPETGELRWKKISGSQNMKQESSSSGNRREFLDMMLNWDRSFGAHHPSATIKYTQDSYIQTQNLGEDLKTGINKRNQDLAGRVAYNWNYRYFIDFNFGYNGSENFAKGDRFGFFPAFSLAWNIAEEPFIKKHLKWMNMFKVRFSYGKVGNDNVGTRFPYLYTIADRYKNGDNEIIYGGYDWAQYPSSYSFGGLGFADVASNGITWEVAEKNDLGIDLALFNDKFTATIDYFDEKRTGIYMVRNYLPQIVGLNGHNPAANVGAVSSKGFDGHFSYKQRINDVNLTVRGNITYSKNEVLERDEENNVYAYQMQRGYRVDQCKGLIAEGLFKDYDDIRNSPTQSWGKVQPGDIKYRDVNGDGVINDGDQVAIGATSRPNLIYGLGASASWKGLDVNVHFQGAGKSTFFTYGKCVWAFTEGEWGNIFKGMLDNRWVDADTAETLGIPANENPNASYPRLSYQGDNASNNNYRNSTFWLKNGRYLRLKTIDVGYTLPKSIVNKMHFNNIRIFLVGTNLLTWSSFKTWDPEMGDPRGESYPLTKSITMGISVNL | not soluble |
| MLKYSNHMAFKDLREYIEFMKKKGKLIEVDDEVSVDLEIAEITRKATYAHLPPLLFKRVKNYENWKIVSNIFYSIESLYEIFGTNKLESISEGFLSNLSNMPITFFDKIKSLREILGLGKVMPKAKSPSFKEEKNLDLTKIPAIKTWPKDAGRYLTFSITITKDPETDVHNLSVYRVQILNEKEAIIHWQAFKRGALTAKKYLEKGISKIPIAVVTGVDPAIAFTAASPVPHGIDKYMFAGILRGEGIDVAELDNQLLVPSHSEVVLTGYVDLNDMRLEGPFGDHMGYYTPADYYPVFKLERVYIREDPIFHVTSVGKPPLEDAWIGKAVERIFLPFAKMLVPELIDMNLPEYGLFTGIGIFSIKKYYPGQAKRVMMALWGTGQLSLLKIIIVVDQDIDVHDINQVIYAIAANVDPKRDVWVIENALTDSLDPSVPFPPLGSKLGIDATRKFKEEMGKEWPEEVRSDEVVAKKADQILNKIIKRYQTSLEHHHHHH | not soluble |
| MGSDKIHHHHHHSCEKDPDLSKLDNNFTVYTNYDSKTNFNDFKTYCLPDSILLIGQGMKAEFWKDENAQEIIKQVADEMDTRGYTRVKVIKNANIGLQLSFTRQTTQIIGTGGWYGGGWYNGWWGPGYWGPYWNDWYYPYPVTYSYNTGTLIMEMVNLTDHPEDTSQKVKLPVIWHSYATGLLFENSKYNMQLTLDAVNQAFDQSPYIKKS | not soluble |
| MPVDKNLRDLEPGIHTDLEGRLTYGGYLRLDQLLSAQQPLSEPAHHDEMLFIIQAQTSELWLKLLAHELRAAIVHLQRDEVWQCRKVLARSKQVLRQLTEQWSVLETLTPSEYMGFRDVLGPSSGFQSLQYRYIEFLLGNKNPQMLQVFAYDPAGQARLREVLEAPSLYEEFLRYLARFGHAIPQQYQARDWTAAHVADDTLRPVFERIYENTDRYWREYSLCEDLVDVETQFQLWRFRHMRTVMRVIGFKRGTGGSSGVGFLQQALALTFFPELFDVRTSVGVDNRPPQGSADAGKRLEHHHHHH | soluble |
| MEYRKVGKWGVKISELSLGSWLTFGKQLDLDTATEVVKKAFNSGINFFDTAEAYAGGIAEAMLGKILKNFRREDLVVSTKIFWGGSGPNDLGLSKKHLLEGTWNSLKRLQMDYVDILYCHRPDPNVPMEEVVFAMDYILREGLALYWGTSEWSAKEIEEAHRVCKELGVMPPIVEQPQYNMFVRERVEKEYAPLYEKYGMGLTTYSPLASGLLSGKYNNGIPEGSRLATFPQVRKWLEEGGLLNEKTFKKLRKLQNIADQLGASLPQLAIAWILKNKNVSSVILGVSRPEQLEENLKAVEIKEKLTEDVMEEIEKILNE | soluble |
| MDSEAVSSDSHVAAAIATRRRSNSVSDDYSVQRTNDDATQCKYFATQKGYWKDEFISRFANSSSNVSEARRFPEISMGYWARTAAIEKYVRDFLNEFDGNAQVVSLGCGFDTLFWRLVSSGAKLVKYVEVDFSSVTSKKIRHILKPIGPNSVDLKKSFESDAVVSHHADLHAGNYHLIGADLRQANELDQKLATCQLSHDIPTIFIAECVLVYMSADSSTALLKQIVSQFKQPAFVNYEQFRTSDAFTKVMEQNLGDRGIQLHGLEMCESAEKQEERFRNAGFKEVKVMDMNQIFNNFLDQKEVSRIREIEMLDEMELLQQLFAHYCVVSARI | not soluble |
| MGQVLPLVTRQGDRIAIVSGLRTPFARQATAFHGIPAVDLGKMVVGELLARSEIPAEVIEQLVFGQVVQMPEAPNIAREIVLGTGMNVHTDAYSVSRACATSFQAVANVAESLMAGTIRAGIAGGADSSSVLPIGVSKKLARVLVDVNKARTMSQRLKLFSRLRLRDLMPVPPAVAEYSTGLRMGDTAEQMAKTYGITREQQDALAHRSHQRAAQAWSDGKLKEEVMTAFIPPYKQPLVEDNNIRGNSSLADYAKLRPAFDRKHGTVTAANSTPLTDGAAAVILMTESRAKELGLVPLGYLRSYAFTAIDVWQDMLLGPAWSTPLALERAGLTMSDLTLIDMHEAFAAQTLANIQLLGSERFAREALGRAHATGEVDDSKFNVLGGSIAYGHPFAATGARMITQTLHELRRRGGGFGLVTACAAGGLGAAMVLEAE | soluble |
| MSLSNKSLTTGTAVDVLAGLPVKREASATGYSRTADFGAAWLDVDGNNCDTRNDILHRDLTDAVQRGGCKILSGTLNDKYSGESIHFVRGAKTSALVQVDHIVALKNAWVTGAQQLTQAQRVSFANDPLNLIAVDAHSNEQKSSGDAATWLPANKSSRCEYVARQISVKATYGLWVTPAEKSAMMDILADCSGQMAESSTFTEGHHHHHH | soluble |
| MTKMSITVNQTVLHQLVKNVDGDSIKMESVLRDELLSITPEVEQMMLQLHQSYQNKAKAFGVFQEKSIFAQHLNRLLEQEIEFLGFSQYSTKLLADELGKYNFAESGTLILCQYNFLATDYLFIALLDSRHSMLVDEHLDIRRTEYLDITQFDIAARINLTDLQVNANSNRYLTFIKGRVGRKISDFFMDFLGAEEGLNPQVQNQCLLQAVSDYCDQGELNKEQTQAVKKQVFEYCKGQLSNGNNIELRELSDSLPTLNEQPFVVFTEKQNYGLEESIPPIRSTLKSLTKFSGSGKGVTLSFDAELLNTRIQWDPMTDTLTIKGLPPNLKDQLQKALKSEN | not soluble |
| MAHHHHHHMKTFRYLTITGDTITLRRGARHVMHLLLTLERAPYDTRLNLEFVSLAHMRQLNYKYKGLDRPTDVLTFAPAGEADSFVNDLLFGDFLERGDGDKGTGATLTASPTCAAAVGAGPNALTQSIIRGELVDLGNIFVSLDYMRLRCRRYPSTTLPLAPYLHAALVHATLHALGYDHTSRALLQQMARREQQLGRQLAMIARQHPRCLPPLNIWDSM | not soluble |
| MAHHHHHHMWRQLMCSYSSKEKLGSKIYTQKKITKREKLLGIVKPFVDENCDSAEPYVIAYYLNNPINLATLKSAYEKVGSQVLYKDPYLYVESCSHFNQQNSSAVFFKNGCMVIWSMNKQNRNKFFHFSKQFLHINSESTIDHYDFEELQVENISNKSYVNNSVIYLTSSNYRTTDKIAISFGLLSAVRLNNLEKKIEKKLFYENDQIENLKKKMKSSNLDHLSKQLFTSKITLHNLRYELNIDQDILDVPEALWELEYQKKLFLNILHIFDIKQRVDLLNHRLSWTLDYLNSFLDYVNQKHSSRLERIIIVIVGLELVLGIMQMGNTIGL | not soluble |
| MKLNSPSRIHMGLIDLNGELGRVDGGVGVALDYPNFQIEGKESSEIELDSKIEIDEKDRENLESRIKNAARNVLDIIGEDGISLKINEAILSHSGLGSGTQVSLSTGKITSLVYGQDLNAETLAKITGRGGTSGIGVAAFETGGFIVDGGHTFGEGKDKIDFRPSSASKDVKPSPVLFRHDFDWDIVLTIPKGEQVCGDREVDIFRKFCPVPSEDVQKICRLVLMKMMPAVIEKDFNSFGMAVNELQNLGFKRAEVGLQKESLKQLLSKLQDVSYSGISSFGPTIYSLGDKDTITEISNEIFDKFGIDGEIISTKANNSGYEIIK | not soluble |
| ANIIANTALTIGATKVDVKEITPELLASLNEIGGSEANVASGYHAIEFLLWGQDLNGTKAGAGARSYTDYLQGKACTNNHCDRRAQYLKAAAQLLVTDLEWMEKQWASGEKDNYRQQLLSESAENGLRKMLFGMGSLSLGELAGERMKVALEANSTEDEHDCFSDNTHNSHYYNEQGIYNIYTGSYTRADGSELKGPSLYQLVAEKDANAAKEILQQFEAARTQVGELVTAAEKNNQHFDQLIAADNAAGHAIINQAIMALVAQTGSIERAAGIIGIDNLNPDTADHEF | not soluble |
| MSLINKEILPFTAQAFDPKKDQFKEVTQEDLKGSWSVVCFYPADFSFVCPTELEDLQNQYEELQKLGVNVFSVSTDTHFVHKAWHDHSDAISKITYTMIGDPSQTITRNFDVLDEATGLAQRGTFIIDPDGVVQASEINADGIGRDASTLAHKIKAAQYVRKNPGEVCPAKWEEGAKTLQPGLDLVGKI | not soluble |
| MLIPSKLSRPVRLEHTVVRERLLAKLSGANNYRLVLITSPAGYGKTTLISQWAAGKNDLGWFSLDEGDNQQERFASYLIAAIQQATGNHCAASEAMVQKRQYASLSSLFAQLFIELADWQRPLYLVIDDYHLINNPVIHDAMRFFLRHQPENMTLVVLSRNLPQLGIANLRVRDQLLEIGSQQLAFTHQEAKQFFDCRLTSPIEADDSSRLCDDVAGWATALQLIALSARQNNSSAQHSARRFAGINASHLSDYLVDEVLDNVDARTRNFLLKSSLLRSMNDALIVRVTGEENGQMQLEEIERQGLFLQRMDDSGEWFRYHPLFGSFLRQRCQWELAVELPEIHRAAAESWMAQGFPSEAIHHALAAGDAKMLRDILLNHAWGMFNHSELGLLEQSLAALPWSNLLENPRLILLQAWLMQSQHRYSEVNTLLARAEQEMSVEMDTAMHGDFNALRAQVAINDGDQDEAERLSMVALEELPLANYYSRIVATSVHGEVLHCKGKLTKSLAVMQQTEQMARRHDVWHYALWSIIQQSEILFAQGFLQAAW | not soluble |
